Results as given in patent US20040146984.

What was measured:
[1] = test system: peptide in which the LPSTGE was randomly placed (TEPGSL)
[2] = target: native bovine serum albumin (UniProt P02769)
[3] = test system: T1, LPXTG-containing peptide KRQLPSTGETANPFY from the streptococcal M6 protein
T1 sequence: KRQLPSTGETANPFY

[4] = test system: peptide in which the LPSTGE was reversed (EGTSPL)

Sequence of native bovine serum albumin (P02769 25-607): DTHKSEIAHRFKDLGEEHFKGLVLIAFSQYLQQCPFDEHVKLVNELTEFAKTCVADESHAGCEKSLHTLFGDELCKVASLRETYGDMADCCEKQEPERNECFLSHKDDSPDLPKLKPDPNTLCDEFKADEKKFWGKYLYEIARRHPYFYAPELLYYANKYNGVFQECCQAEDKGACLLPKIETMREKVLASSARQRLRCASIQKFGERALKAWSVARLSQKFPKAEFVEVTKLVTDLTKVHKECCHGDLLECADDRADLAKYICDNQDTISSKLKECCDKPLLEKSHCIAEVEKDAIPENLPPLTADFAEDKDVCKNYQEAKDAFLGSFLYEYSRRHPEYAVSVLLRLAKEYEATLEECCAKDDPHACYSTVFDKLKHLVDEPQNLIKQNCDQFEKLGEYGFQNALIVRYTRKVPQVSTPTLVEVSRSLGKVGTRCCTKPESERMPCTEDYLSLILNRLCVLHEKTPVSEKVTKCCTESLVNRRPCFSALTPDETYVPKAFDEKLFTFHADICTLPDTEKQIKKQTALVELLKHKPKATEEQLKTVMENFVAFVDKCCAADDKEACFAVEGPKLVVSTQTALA

## LPXTGase
[1]
  cleavage of bead-bound or free peptide: no cleavage was observed (not shown)
[2]
  cleavage (SDS-PAGE for degradation): No cleavage was observed when native bovine serum albumin was reacted in a similar way
[3]
  % of control (Calcium chloride 20 mM): 23 % of control
  % of control (Control, no salt): 100 % of control
  % of control (EDTA 20 mM): 5.2 % of control
  % of control (Hydroxylamine-HCl 100 mM): 27 % of control
  % of control (Magnesium chloride 20 mM): 20 % of control
  % of control (Potassium chloride 100 mM): 20 % of control
  % of control (Putrescene chloride 20 mM): 21 % of control
  % of control (Sodium chloride 100 mM): 16 % of control
  % of control (Sodium phosphate 20 mM): 49 % of control
  % of control (Sodium sulfate 20 mM): 57 % of control
  Km (Lineweaver-Burk plot of cleavage of 125I-labeled peptide, 20 to 240 µM, 2.4 µM enzyme, 30 min): Km of 0.26 mM
  Vmax (Lineweaver-Burk plot of cleavage of 125I-labeled peptide): Vmax of 67 µM in 30 min when 2.4 µM of enzyme was used in the assay
  cleavage of bead-bound peptide, N-terminal sequencing of the fragment: the enzyme cleaved after glutamic acid within the LPSTGE (SEQ ID NO:3) sequence releasing the TANPFY (SEQ ID NO:6) peptide fragment
  cleavage of free peptide, sequencing of the fragments: the enzyme cleaved the free KRQLPSTGETANPFY (SEQ ID NO:2) peptide at two sites, after the serine and the glutamic acid of LPSTGE
  peptide cleaved, cpm (Calcium chloride 20 mM): 9710 cpm
  peptide cleaved, cpm (Control, no salt): 41500 cpm
  peptide cleaved, cpm (EDTA 20 mM): 2150 cpm
  peptide cleaved, cpm (Hydroxylamine-HCl 100 mM): 11200 cpm
  peptide cleaved, cpm (Magnesium chloride 20 mM): 8620 cpm
  peptide cleaved, cpm (Potassium chloride 100 mM): 8610 cpm
  peptide cleaved, cpm (Putrescene chloride 20 mM): 8710 cpm
  peptide cleaved, cpm (Sodium chloride 100 mM): 6720 cpm
  peptide cleaved, cpm (Sodium phosphate 20 mM): 20600 cpm
  peptide cleaved, cpm (Sodium sulfate 20 mM): 23500 cpm
[4]
  cleavage of bead-bound or free peptide: no cleavage was observed (not shown)
